# Assays:
# [1] = target: hMET.mmh (human) (UniProt P08581); test: SPR Biacore T-200, antibody captured by anti-human Fc, 90 nM hMET.mmh, 25 C (second run)
# [2] = target: human MET on EBC-1, NCI-H441 and NCI-H358 cells (human) (UniProt P08581); test: cell binding assay on EBC-1 cells, n=1, gamma counting
Antigen Bound [1],"IR (%) (immunoreactivity, percent of activity bound to cells) [2]",Substance
-1.46 RU/nm,–,Non-binding isotype Control (antibody)
–,2.8%,non-specific DFO-Ab radioimmunoconjugate (antibody)

# Reference: patent US20210077638A1
